Patent publication CN114907480A (JIANGSU XINTRUM PHARMACEUTICALS CO LTD, dated 2022)

T1: 重组人CD73蛋白 (自主表达的人源CD73蛋白, C端6×His标签) (human, UniProt P21589 27-549, limits assumed)
T1 sequence: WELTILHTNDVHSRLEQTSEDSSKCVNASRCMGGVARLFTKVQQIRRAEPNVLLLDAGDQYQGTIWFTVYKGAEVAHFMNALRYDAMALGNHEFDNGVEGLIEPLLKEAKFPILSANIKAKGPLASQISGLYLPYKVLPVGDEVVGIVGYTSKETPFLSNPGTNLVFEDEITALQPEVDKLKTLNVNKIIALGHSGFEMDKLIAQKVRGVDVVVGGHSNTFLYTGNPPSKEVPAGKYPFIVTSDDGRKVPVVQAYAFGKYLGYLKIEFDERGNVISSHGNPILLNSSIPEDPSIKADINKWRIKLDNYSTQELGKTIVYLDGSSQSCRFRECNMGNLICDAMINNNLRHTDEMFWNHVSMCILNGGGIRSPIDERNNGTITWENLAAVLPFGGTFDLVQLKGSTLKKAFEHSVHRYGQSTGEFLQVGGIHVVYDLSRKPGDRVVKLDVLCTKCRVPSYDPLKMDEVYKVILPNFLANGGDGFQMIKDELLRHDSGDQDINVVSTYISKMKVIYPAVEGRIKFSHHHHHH

B1: 抗人CD73单克隆抗体7-C10-Ba-C2 (antibody, V domains shown)
VH: EVQLQQSGPELVKPGASMKISCKASGYSFTGYTMNWVKQSHGKNLEWIGFITPYNGDTIYNQKFKGKATVTVDKSSSTAYMDLLSLTSEDSAVYYCAREGYDGGYFDYWGQGTTLTVSS
VL: DIQMTQSPASLSASVGETVTITCRASENIYSYLAWYQQKQGKSPQLLVYNTQTLAEGVPSRFSGSGSGTQFSLKINSLQPEDFGSYYCQHHYGTPMYPFGGGTKLEIK
notes: Mouse (BALB/c) hybridoma antibody, IgG type, purified from ascites; also called 本发明抗体7-C10-Ba-C2; 本发明的抗CD73单抗
B2: MEDI-9447 (MedImmune公司的抗CD73单克隆抗体) (antibody, V domains shown)
VH: EVQLLESGGGLVQPGGSLRLSCAASGFTFSSYAYSWVRQAPGKGLEWVSAISGSGGRTYYADSVKGRFTISRDNSKNTLYLQMNSLRAEDTAVYYCARLGYGRVDEWGRGTLVTVSS
VL: QSVLTQPPSASGTPGQRVTISCSGSLSNIGRNPVNWYQQLPGTAPKLLIYLDNLRLSGVPDRFSGSKSGTSASLAISGLQSEDEADYYCATWDDSHPGWTFGGGTKLTVL

What was measured:
[1] = biological target: T1, 重组人CD73蛋白 (自主表达的人源CD73蛋白, C端6×His标签); assay: SPR, Biacore T200, antibody captured by anti-mouse Fc IgG on CM5 chip, human CD73 as analyte, 25℃, 1:1 model
[2] = biological target: T1, 重组人CD73蛋白 (自主表达的人源CD73蛋白, C端6×His标签); assay: SPR, Biacore T200, antibody captured on CM5 chip, human CD73 as analyte, 25℃, 1:1 model

| Binder | Kd [1] | koff [1] | kon [1] | Kd [2] | koff [2] | kon [2] |
| --- | --- | --- | --- | --- | --- | --- |
| B1 | 0.416 nM | 3.21e-05 s⁻¹ | 77200 M⁻¹ s⁻¹ | – | – | – |
| B2 | – | – | – | 0.141 nM | 3.91e-05 s⁻¹ | 278000 M⁻¹ s⁻¹ |
